According to PMC6396373, “The herpesviral antagonist m152 reveals differential activation of STING‐dependent IRF and NF‐κB signaling and STING's dual role during MCMV infection” (The EMBO Journal, 2019):

Target: the molecule itself
Assay: non-reducing SDS-PAGE with immunoblot; iMEF stably expressing ev or m152-V5, stimulated with 10 μg/ml ISD (also with Brefeldin A); lysis in 25 mM Tris-HCl pH 7.6, 150 mM NaCl, 1% IGEPAL CA-630, 1% sodium deoxycholate, 0.1% SDS; anti-STING blot for STING dimers

B1: endogenous murine STING (natural protein)
chain: MPYSNLHPAIPRPRGHRSKYVALIFLVASLMILWVAKDPPNHTLKYLALHLASHELGLLLKNLCCLAEELCHVQSRYQGSYWKAVRACLGCPIHCMAMILLSSYFYFLQNTADIYLSWMFGLLVLYKSLSMLLGLQSLTPAEVSAVCEEKKLNVAHGLAWSYYIGYLRLILPGLQARIRMFNQLHNNMLSGAGSRRLYILFPLDCGVPDNLSVVDPNIRFRDMLPQQNIDRAGIKNRVYSNSVYEILENGQPAGVCILEYATPLQTLFAMSQDAKAGFSREDRLEQAKLFCRTLEEILEDVPESRNNCRLIVYQEPTDGNSFSLSQEVLRHIRQEEKEEVTMNAPMTSVAPPPSVLSQEPRLLISGMDQPLPLRTDLI
notes: stimulator of interferon genes (STING), endogenous in immortalized B6J mouse embryonic fibroblasts; Dimers seen on non-reducing SDS-PAGE after ISD stimulation; also called Endogenous STING; source: endogenous, iMEF lysate
- stoichiometry N: 2
